Data published in PMC2602784.

Columns and labels:
Test in all cases: EMSA
LldR K4A = biological target: T1, LldR K4A (Corynebacterium glutamicum ATCC 1332 …, UniProt Q8NLM6 1-231, K4A)
T1 sequence: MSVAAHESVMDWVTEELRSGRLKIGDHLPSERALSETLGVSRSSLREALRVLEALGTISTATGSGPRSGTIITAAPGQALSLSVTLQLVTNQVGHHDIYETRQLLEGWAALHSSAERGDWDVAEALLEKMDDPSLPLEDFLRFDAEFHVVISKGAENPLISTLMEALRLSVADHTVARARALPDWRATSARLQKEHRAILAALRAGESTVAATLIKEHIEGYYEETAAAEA

LldR G63A = biological target: T2, LldR G63A (Corynebacterium glutamicum ATCC 1332 …, UniProt Q8NLM6 1-231, G63A)
T2 sequence: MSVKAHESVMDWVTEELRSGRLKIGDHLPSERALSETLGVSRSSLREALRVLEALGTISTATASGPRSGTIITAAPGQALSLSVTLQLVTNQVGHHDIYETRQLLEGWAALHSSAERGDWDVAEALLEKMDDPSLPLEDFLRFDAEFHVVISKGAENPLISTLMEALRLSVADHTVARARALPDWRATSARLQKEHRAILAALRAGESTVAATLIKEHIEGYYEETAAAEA

LldR R32A = biological target: T3, LldR R32A (Corynebacterium glutamicum ATCC 1332 …, UniProt Q8NLM6 1-231, R32A)
T3 sequence: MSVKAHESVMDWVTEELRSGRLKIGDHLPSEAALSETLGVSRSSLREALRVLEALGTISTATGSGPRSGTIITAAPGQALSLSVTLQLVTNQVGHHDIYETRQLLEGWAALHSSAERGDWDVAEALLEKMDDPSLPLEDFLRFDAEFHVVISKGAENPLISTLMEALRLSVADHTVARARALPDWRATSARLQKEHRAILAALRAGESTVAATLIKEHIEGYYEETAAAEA

LldR R42A = biological target: T4, LldR R42A (Corynebacterium glutamicum ATCC 1332 …, UniProt Q8NLM6 1-231, R42A)
T4 sequence: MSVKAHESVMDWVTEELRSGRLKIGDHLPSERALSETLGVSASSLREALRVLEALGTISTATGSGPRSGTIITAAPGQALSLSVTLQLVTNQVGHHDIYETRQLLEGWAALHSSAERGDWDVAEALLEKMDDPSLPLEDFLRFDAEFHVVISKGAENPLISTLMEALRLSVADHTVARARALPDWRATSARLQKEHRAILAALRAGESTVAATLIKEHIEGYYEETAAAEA

Measured: binding result

B1: cgl2917-site1 (dsDNA)
DNA 1: TTGTGGTCTGACCATGA
DNA 2: TCATGGTCAGACCACAA
no binding: all assays above
